Legend:
[1] = target: C5a receptor (C5aR; CD88), mouse, on peritoneal macrophages (mouse) (UniProt P30993); assay: cell-based or functional assay
[2] = target: T1, TLR5, mouse, on peritoneal macrophages (mouse, UniProt Q9JLF7 27-859); assay: FRET, acceptor photobleaching, labelled antibodies on P. gingivalis-stimulated mouse macrophages
T1 construct: whole, on cells; Negative control in FRET; detected with antibody clone 85B152.5; also called Toll-like receptor 5
Protocol: (§1) Upon stimulation for 10 min at 37° C. with P. gingivalis, mouse macrophages were labeled with a mixture of Cy3-conjugated (donor) and Cy5-conjugated (acceptor) antibodies, as indicated in FIG. 4I. In additional experiments shown in FIG. 4I, FITC-labeled P. gingivalis was used as donor and TRITC-labeled receptors served as acceptors. The cells were washed and fixed, and energy transfer between various donor-acceptor pairs was calculated from the increase in donor fluorescence after acceptor photobleaching (REF 9, 14). […] The conjugation of antibodies to Cy3 or Cy5 was performed using kits from Amersham Biosciences.

[3] = target: T2, CXC-chemokine receptor 4 (CXCR4), mouse, on peritoneal macrophages (mouse, UniProt P70658 1-359); assay: FRET, acceptor photobleaching, labelled antibodies on P. gingivalis-challenged mouse macrophages
T2 construct: whole, on cells
T2 sequence (P70658 whole entry): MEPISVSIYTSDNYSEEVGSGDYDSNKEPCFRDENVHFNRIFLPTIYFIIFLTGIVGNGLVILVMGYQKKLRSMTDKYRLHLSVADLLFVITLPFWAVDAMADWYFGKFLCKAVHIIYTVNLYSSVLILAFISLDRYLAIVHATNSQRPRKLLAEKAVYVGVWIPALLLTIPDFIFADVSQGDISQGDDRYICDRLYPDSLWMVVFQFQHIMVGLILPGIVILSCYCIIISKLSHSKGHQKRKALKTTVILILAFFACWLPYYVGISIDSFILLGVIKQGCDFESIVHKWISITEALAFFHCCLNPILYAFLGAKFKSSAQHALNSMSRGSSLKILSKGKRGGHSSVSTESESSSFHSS
Protocol: as §1

T1 sequence (Q9JLF7 27-859): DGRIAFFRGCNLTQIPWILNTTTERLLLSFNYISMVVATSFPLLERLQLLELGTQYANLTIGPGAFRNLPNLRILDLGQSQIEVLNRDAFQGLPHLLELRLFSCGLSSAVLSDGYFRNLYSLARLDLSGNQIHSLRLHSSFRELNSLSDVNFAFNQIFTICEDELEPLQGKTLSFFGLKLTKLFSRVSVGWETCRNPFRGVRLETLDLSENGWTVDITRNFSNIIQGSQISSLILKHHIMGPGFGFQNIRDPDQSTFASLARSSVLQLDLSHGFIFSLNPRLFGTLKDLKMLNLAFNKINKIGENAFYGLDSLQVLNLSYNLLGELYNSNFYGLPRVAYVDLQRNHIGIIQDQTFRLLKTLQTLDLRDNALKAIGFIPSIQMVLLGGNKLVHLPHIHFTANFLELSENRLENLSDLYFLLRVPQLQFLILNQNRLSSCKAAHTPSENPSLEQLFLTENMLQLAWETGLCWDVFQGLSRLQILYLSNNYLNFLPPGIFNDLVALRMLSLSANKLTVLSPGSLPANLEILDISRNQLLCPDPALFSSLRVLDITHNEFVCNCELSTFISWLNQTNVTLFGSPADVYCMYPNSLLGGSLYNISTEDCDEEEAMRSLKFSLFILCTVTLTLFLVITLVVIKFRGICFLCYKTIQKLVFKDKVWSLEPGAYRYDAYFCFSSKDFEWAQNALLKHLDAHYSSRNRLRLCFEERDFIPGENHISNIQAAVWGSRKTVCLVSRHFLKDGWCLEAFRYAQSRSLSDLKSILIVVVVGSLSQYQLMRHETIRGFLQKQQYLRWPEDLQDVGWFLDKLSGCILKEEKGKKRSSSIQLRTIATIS

For “Mouse C5a (from UniProt P06684 679-755) (ligand)”, the intracellular cAMP in P. gingivalis-stimulated mouse macrophages [1] was over 3 fold.

B1: C5a receptor (C5aR; CD88), mouse, on peritoneal macrophages (receptor, UniProt P30993 1-351, looked up)
chain: MDPIDNSSFEINYDHYGTMDPNIPADGIHLPKRQPGDVAALIIYSVVFLVGVPGNALVVWVTAFEARRAVNAIWFLNLAVADLLSCLALPVLFTTVLNHNYWYFDATACIVLPSLILLNMYASILLLATISADRFLLVFKPIWCQKVRGTGLAWMACGVAWVLALLLTIPSFVYREAYKDFYSEHTVCGINYGGGSFPKEKAVAILRLMVGFVLPLLTLNICYTFLLLRTWSRKATRSTKTLKVVMAVVICFFIFWLPYQVTGVMIAWLPPSSPTLKRVEKLNSLCVSLAYINCCVNPIIYVMAGQGFHGRLLRSLPSIIRNALSEDSVGRDSKTFTPSTTDTSTRKSQAV
notes: whole, on cells; In FRET it was detected with a dye-labelled mouse-specific monoclonal antibody (clone 20/70); also called complement C5a receptor
B1: no binding [2]; binds [3].

— US20130034568A1 (UNIVERSITY OF LOUISVILLE RESEARCH FOUNDATION, published 2013)
